Test system: MS2 coat protein
Test: apparent KD of MS2 coat protein; designed switch direction (-1 OFF switch, 1 ON switch): -1; higher = weaker reporter binding
Summary of the method: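 Designed RNA switches with common flanks were transcribed on Illumina chips by stalled E. coli RNA polymerase and titrated with SNAP-549-labelled MS2 coat protein, from 0.7 or 1.5 nM doubling to 3 µM, in Tris-HCl pH 7.5 buffer with KCl, MgCl2, BSA, DTT, tRNA and Tween-20. Steps lasted 0.8–1.5 h (lowest) to 10–20 min (highest). Titrations ran without input, with 200 uM small-molecule ligand, or with an oligonucleotide input. Normalised cluster fluorescence was curve-fitted, and apparent KD is the per-design median over clusters.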

[1] = Eterna round: R95, input ligand: microRNA oligo, concentration not stated
[2] = Eterna round: R95, input ligand: FMN 200 uM
[3] = Eterna round: R95, input ligand: none
[4] = input ligand: microRNA oligo, concentration not stated

Sequence | apparent KD of MS2 coat protein [1] [nM] | apparent KD of MS2 coat protein [2] [nM] | apparent KD of MS2 coat protein [3] [nM] | apparent KD of MS2 coat protein (input ligand: FMN 200 uM) [nM] | apparent KD of MS2 coat protein (input ligand: none) [nM] | apparent KD of MS2 coat protein [4] [nM]
GCAUGGAAAGUGAGGAUAUACCACUGGAUACAGUGGUAGAAGGCACAUGAGGAUCACCCAUGUCUCUACCAUGC [Fiskers BMX 4 - 41] (puzzle: Brourd's mod of Exclusion 4) | 13.4 |  |  |  |  | 
GCAUUGAGUGUGAGGAUAUGCUGGUCCUUGGAUCAGCAGAAGGCACAUGAGGAUCACCCAUGUGAAAACAAUGC [JL bmx4 3.12] (puzzle: Brourd's mod of Exclusion 4) | 19.2 | 125 | 20.3 |  |  | 
GCCAGAGCAGGAUAUCUAAUAUCUCACAUGAGGAUCACCCAUGUCCAGCGAAAGCUGGAGGGAGAAGGGCUCUGGC [Fiskers Ex 5 - 10] (puzzle: Exclusion 5) | 49.8 | 34.3 | 61.8 |  |  | 
GCCAGAGCAGGAUAUUCAAUAAUCCACAUGAGGAUCACCCAUGUCCUGCGAAAGCAGGAGGGAGAAGGGCUCUGGC [Mat - Exclusion 5 - Eli mod - D89] (puzzle: Exclusion 5) | 75.7 | 37.7 | 81.9 |  |  | 
GCCGAAAAUGUGAGGAUAUACCUAUGGAUACAUAGGUAGAAGGCACAUGAGGAUCACCCAUGUCUAAUAACGGC [Eli bmx4 4.26] (Eterna round: R97, puzzle: Brourd's mod of Exclusion 4) |  |  |  | 521 | 212 | 
GCCGAUUAAGUGAGGAUAUACCUAUGGAUACAUAGGUAGAAGGCACAUGAGGAUCACCCAUGUUCCUCAUCGGC [Fiskers BMX 4 - 11] (Eterna round: R96, puzzle: Brourd's mod of Exclusion 4) |  |  |  | 155 | 21.3 | 16.5
GCCGAUUAAGUGAGGAUAUACCUAUGGAUACAUAGGUAGAAGGCACAUGAGGAUCACCCAUGUUCCUCAUCGGC [Fiskers BMX 4 - 11] (puzzle: Brourd's mod of Exclusion 4) | 19.3 |  |  |  |  | 
GCCGGAUUUGUGAGGAUAUGCCUAUGGAUACAUAGGCAGAAGGCACAUGAGGAUCACCCAUGUACCUCACCGGC [JL-BMX4-4.23 Eli mod] (Eterna round: R97, puzzle: Brourd's mod of Exclusion 4) |  |  |  | 141 | 21.4 | 
GCCGGCUAUGUAGGAUAUGGGCCUGAUACGGGUCUAGAAGGACAUGAGGAUCACCCAUGUAUCGUGCGCUGGUGGCUUGCCGGU [-30, -30 kcal and 19% A] (Eterna round: R96, puzzle: Exclusion NG 1) |  |  |  | 389 | 141 | 119
GCCGGUUAAGUCAGGAUAUACCUAUGGAUACAUAGGUAGAAGGGACAUGAGGAUCACCCAUGUUCCUCAUCGGC [Fiskers BMX 4 - 13] (puzzle: Brourd's mod of Exclusion 4) | 13.3 |  |  |  |  | 
GCCGUAAAUGUGAGGAUAUACCUAUGGAAACAUAGGUAGAAGGCACAUGAGGAUCACCCAUGUUCUUAAUCGGC [Mat - Exclusion 4 - Eli Mod - D2] (Eterna round: R97, puzzle: Brourd's mod of Exclusion 4) |  |  |  | 689 | 212 | 
GCCGUAAAUGUGAGGAUAUACCUAUGGAUACAUAGGUAGAAGGCACAUGAGGAUCACCCAUGUUCCAAAUCGGC [Eli bmx4 4.07] (Eterna round: R97, puzzle: Brourd's mod of Exclusion 4) |  |  |  | 47.9 | 132 | 
GCCGUAAAUGUGAGGAUAUACCUAUGGAUACAUAGGUAGAAGGCACAUGAGGAUCACCCAUGUUCUUAAUCGGC [Eli BMX r4m2] (Eterna round: R97, puzzle: Brourd's mod of Exclusion 4) |  |  |  | 567 | 185 | 
GCCUCACUUGAGGAUCACCCAAGUCAGGAUAUCUACAAGCCGACCAUACCGGCUUGCAAGAGAAGGGACUCUAA [Esonreti] (Eterna round: R97, puzzle: Exclusion 1) |  |  |  | 246 | 31.8 | 
GCCUCACUUGAGGAUCACCCAAGUCAGGAUAUUCACUGAGCUGCAUAACAACUCGGCCGAAGAAGGGAUUCGGG [Edlacebe] (Eterna round: R97, puzzle: Exclusion 1) |  |  |  | 41.3 | 84.9 | 
GCGACACGAGGAUAUCGGGUCUCUAACAUGAGGAUCACCCAUGUGGCGGCAGGCGUAAGACGAGAAGGCGUAUUCA [Eternabot (L2) Solution 65] (Eterna round: R97, puzzle: Exclusion 5) |  |  |  | 26.6 | 34.3 | 
GCGAGCAGACGGAGAUCCAACAUGAGGAUCACCCAUGUCUCGCAAGCUUUUUGCUUGUCUUAUCCUCCUCUGUUUAG [Design #8] (Eterna round: R97, puzzle: Sensor, turn-off variant 1) |  |  |  | 81.3 | 80.4 | 

Sequence | apparent KD of MS2 coat protein [1] [nM] | apparent KD of MS2 coat protein [2] [nM] | apparent KD of MS2 coat protein [3] [nM] | apparent KD of MS2 coat protein (input ligand: FMN 200 uM) [nM] | apparent KD of MS2 coat protein (input ligand: none) [nM] | apparent KD of MS2 coat protein [4] [nM]
GCGCACUAAGUGAGGAUAUCGAUUUUUUUUAGGAUCGAGAAGGCACAUGAGGAUCACCCAUGUUUGACGUGCGC [JR_BMOE4_Sub098] (puzzle: Brourd's mod of Exclusion 4) | 15 |  |  |  |  | 
GCGCAGGUAGGAUAUCGAGCUAAGAACAUGAGGAUCACCCAUGUGUUCGGUAGCCAACUUCGAGAAGGACCAAAUA [Ceati] (puzzle: Exclusion 5) | 11.4 | 23.9 | 14.9 |  |  | 
GCGCCAUCGUGAGAUGGCGUAAUUACAUGAGGAUCACCCAUGUAGGAUAUCGAUUGCUUUGCAGUCGAGAAGGGCAUGUAUAAU [JL ENG3 3.94] (Eterna round: R96, puzzle: Exclusion NG 3) |  |  |  | 45 | 37.9 | 26.5
GCGCCAUCGUGAGAUGGCGUUCCGACAUGAGGAUCACCCAUGUAGGAUAUCGAUUGCUUUGCAGUCGAGAAGGGCGUGAUAAGU [JL ENG3 3.73] (Eterna round: R96, puzzle: Exclusion NG 3) |  |  |  | 18.3 | 22.9 | 17.8
GCGGACUAGAUCGUGAGAUCAGAGACAUGAGGAUCACCCAUGUAGGAUAUCGAUUCGAAACGAAUCGAGAAGGGCAUAGUCCGC [JL denovo 7] (Eterna round: R96, puzzle: Exclusion NG 3) |  |  |  | 17.1 | 15.9 | 14.8
GCGGACUUGAACGUGAGUUCAGAGACAUGAGGAUCACCCAUGUAGGAUAUCGAUUCGAAACGAAUCGAGAAGGGCAUGGUCCGC [JL denovo 14] (Eterna round: R96, puzzle: Exclusion NG 3) |  |  |  | 37.4 | 28.8 | 21.3
GCGUGGCGUAAGGAUAUCCAUACGGUAUAACCGGGAGAAGGUACGACAUGAGGAUCACCCAUGUGGCCUGGAAA [Sorimaat] (Eterna round: R97, puzzle: Exclusion 6) |  |  |  | 64.4 | 22.2 | 
GCGUUCUGAGGAUAUACAUGAGGAUCACCCAUGUUGAGAAUUAGGUAUAAGGGAUUUUGUAGAAGGCAGAGUGC [JR_Ex3_Sub072] (Eterna round: R97, puzzle: Exclusion 3) |  |  |  | 228 | 59.9 | 
GCUAGGAGUGUGAGGAUAUGCUGUUCCUUGGAACAGCAGAAGGCACAUGAGGAUCACCCAUGUGAAGACCUAGC [Mat - Exclusion 4 - JL Mod - D3] (Eterna round: R97, puzzle: Brourd's mod of Exclusion 4) |  |  |  | 149 | 24.5 | 
GCUCGCGGGCAAGGAUAUCCUACGCUGUUCUGGUUCGUGUCUGUUACAUGAGGAUCACCCAUGUGGGAGAAGGUGCACCAGGGC [Design 48] (Eterna round: R96, puzzle: Exclusion NG 2) |  |  |  | 13.7 | 14.7 | 9.98
GCUGCAUCAGGAUAUAUACGGUAUCACAUGAGGAUCACCCAUGUUCGUGUGGAACUGAACGUAGAAGGGAUUAGAU [Aramaa] (puzzle: Exclusion 5) | 28.3 | 31.1 | 24.5 |  |  | 
GCUGCGCGAGGAUAUGCGGUUUGUGCUUUGGCCCGUGGCGUACAUGAGGAUCACCCAUGUAGAAGGCGUGUGGG [Apr-15 SS2-53] (puzzle: Exclusion 2) | 18.1 |  |  |  |  | 
GCUGGUCGAGGAUAUACAUGAGGAUCACCCAUGUAGAUCAACCAGCGAUAGCUGGAAUGUAGAAGGUGACCAGC [E3/5-B1] (Eterna round: R97, puzzle: Exclusion 3) |  |  |  | 21.9 | 15.9 | 
GCUGGUCGAGGAUAUACAUGAGGAUCACCCAUGUGAUUAGCAGUCCUCGGACUGCAAUGUAGAAGGCGACCAGC [E3/2-A1] (Eterna round: R97, puzzle: Exclusion 3) |  |  |  | 620 | 439 | 
GCUUAUAGAGGAUAUACAGAUUAUUACAUGAGGAUCACCCAUGUUCUUCAAUGUAUAUAUGUAGAAGGCUAAGGAG [Mat - Exclusion 5 - JL Mod - D11] (Eterna round: R97, puzzle: Exclusion 5) |  |  |  | 175 | 63.2 | 
GCUUGUAGAGGAUAUACGAGGGCCCGAGCGGAUAACACCGCACAUGAGGAUCACCCAUGUAGAAGGCUACUAUU [JL-ex2-4.18 ViennaUCT mod] (Eterna round: R97, puzzle: Exclusion 2) |  |  |  | 96 | 105 | 
GCUUGUGCCCUAGGAUAUCGCCCAGCCAAUGGAUGAGAAGGAGGCGGGUGAAACAUGAGGAUCACCCAUGUAAACGCACAGGCG [Erdiusbi] (Eterna round: R96, puzzle: Exclusion NG 1) |  |  |  | 189 | 21.9 | 18
